{
  "source": "paper PMC7072198",
  "about": "“An Epitope on EGFR Loading Catastrophic Internalization Serve as a Novel Oncotarget for Hepatocellular Carcinoma Therapy” (Cancers, 2020)",
  "target": "T1, EGFR extracellular domain (ECD), wild type (human, UniProt P00533 25-645)",
  "T1 construct": "Epidermal growth factor receptor, human, extracellular domain; The Biacore legend and methods say only 'recombinant human EGFR' / 'EGFR protein'; also called EGFR ECD; EGFR ectodomain",
  "assay": "ITC; MicroCal VP-ITC; nineteen 3 μL aliquots of 400 μM rLZ-8 injected into 20 μM EGFR ectodomain; single site binding model",
  "details": "both partners purified",
  "data": [
    {"binder": "recombinant Lingzhi-8 (rLZ-8), wild type (natural protein, Ganoderma lucidum, UniProt P14945 1-111, looked up, Lingzhi-8 (LZ-8) from Ganoderma lucidum, codon-optimised synthetic gene; Fluorescently labelled (red/green) in the cell experiments; also called rLZ-8^wt; source: Pichia pastoris X33 (pGAPZα A vector), culture supernatant, purified) MSDTALIFRLAWDVKKLSFDYTPNWGRGNPNNFIDTVTFPKVLTDKAYTYRVAVSGRNLGVKPSYAVESDGSQKVNFLEYNSGYGIADTNTIQVFVVDPDTNNDFIIAQWN", "values": [
      {"measurement": "stoichiometry N", "result": 2, "unit": "rLZ-8 per EGFR ECD"}
    ]}
  ]
}
